Where no end group is shown, it is not given here. [ ]: non-standard residue; d: D form. pY = N[C@@H](Cc1ccc(OP(=O)(O)O)cc1)C(=O)O
B4: RPA70 N-terminal domain (residues 1-120), purified (other, UniProt P27694 1-120, looked up)
chain: MVGQLSEGAIAAIMQKGDTNIKPILQVINIRPITTGNSPPRYRLLMSDGLNTLSSFMLATQLNPLVEEEQLSSNCVCQIHRFIVNTLKDGRRVVILMELEVLKSAEAVGVKIGNPVPYNE
modifications: Atto488 label
notes: range 1-120; also called RPA70 N-terminal OB1 domain; RPA70N (1-120)

Key:
[1] = target: T1, Flag-tagged POLQ (polymerase theta) overexpressed in HEK293T cells (UniProt O75417 1-2590, limits assumed); experiment: Flag immunoprecipitation from HEK293T cells with or without 5 Gy IR, western blot [panel C]
T1 construct: also called Flag-POLQ; not shown: Flag tag

[2] = target: T2, Flag-RAD50 expressed in HEK293T cells (UniProt Q92878 1-1312, limits assumed); experiment: Flag-M2 immunoprecipitation from HEK293T cells co-transfected with RFP-GRB2, western blot [panel E]
T2 construct: not shown: Flag tag
T2 sequence (looked up): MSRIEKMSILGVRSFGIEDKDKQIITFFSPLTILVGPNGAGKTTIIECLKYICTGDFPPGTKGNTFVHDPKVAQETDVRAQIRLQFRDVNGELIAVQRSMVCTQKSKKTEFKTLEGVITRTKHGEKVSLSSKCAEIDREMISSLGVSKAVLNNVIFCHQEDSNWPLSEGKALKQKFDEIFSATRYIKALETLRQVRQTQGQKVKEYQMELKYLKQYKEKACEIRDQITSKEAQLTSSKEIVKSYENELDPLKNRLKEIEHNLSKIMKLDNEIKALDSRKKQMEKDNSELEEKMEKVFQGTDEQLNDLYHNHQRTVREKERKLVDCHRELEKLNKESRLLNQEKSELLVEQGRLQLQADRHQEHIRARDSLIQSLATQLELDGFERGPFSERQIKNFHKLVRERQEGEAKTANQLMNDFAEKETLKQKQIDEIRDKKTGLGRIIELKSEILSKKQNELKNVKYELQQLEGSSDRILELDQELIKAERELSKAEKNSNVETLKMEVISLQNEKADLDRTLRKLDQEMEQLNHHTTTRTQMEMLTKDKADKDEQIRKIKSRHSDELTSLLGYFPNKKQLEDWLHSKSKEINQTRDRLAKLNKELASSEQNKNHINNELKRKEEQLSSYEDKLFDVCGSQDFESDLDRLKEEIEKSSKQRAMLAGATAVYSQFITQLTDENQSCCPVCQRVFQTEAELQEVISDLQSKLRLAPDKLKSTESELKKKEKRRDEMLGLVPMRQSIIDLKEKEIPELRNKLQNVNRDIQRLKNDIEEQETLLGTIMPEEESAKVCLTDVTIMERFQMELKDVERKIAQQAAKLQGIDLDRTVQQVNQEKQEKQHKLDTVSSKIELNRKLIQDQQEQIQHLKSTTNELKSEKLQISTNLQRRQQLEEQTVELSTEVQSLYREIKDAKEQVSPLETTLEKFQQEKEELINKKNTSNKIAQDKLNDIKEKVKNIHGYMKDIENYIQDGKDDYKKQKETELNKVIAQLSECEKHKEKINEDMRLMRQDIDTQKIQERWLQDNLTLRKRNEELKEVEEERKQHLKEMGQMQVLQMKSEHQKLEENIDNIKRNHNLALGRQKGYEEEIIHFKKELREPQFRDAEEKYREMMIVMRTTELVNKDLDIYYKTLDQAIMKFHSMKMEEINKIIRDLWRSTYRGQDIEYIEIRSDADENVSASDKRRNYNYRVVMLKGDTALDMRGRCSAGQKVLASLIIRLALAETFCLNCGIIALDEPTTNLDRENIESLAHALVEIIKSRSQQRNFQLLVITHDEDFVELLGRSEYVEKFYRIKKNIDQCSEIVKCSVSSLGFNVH

[3] = target: T3, NBS1, endogenous, in HEK293T cell extracts (UniProt O60934 1-754); experiment: Flag-M2 immunoprecipitation from HEK293T cells, unperturbed or 5 Gy IR, western blot
T3 sequence (looked up): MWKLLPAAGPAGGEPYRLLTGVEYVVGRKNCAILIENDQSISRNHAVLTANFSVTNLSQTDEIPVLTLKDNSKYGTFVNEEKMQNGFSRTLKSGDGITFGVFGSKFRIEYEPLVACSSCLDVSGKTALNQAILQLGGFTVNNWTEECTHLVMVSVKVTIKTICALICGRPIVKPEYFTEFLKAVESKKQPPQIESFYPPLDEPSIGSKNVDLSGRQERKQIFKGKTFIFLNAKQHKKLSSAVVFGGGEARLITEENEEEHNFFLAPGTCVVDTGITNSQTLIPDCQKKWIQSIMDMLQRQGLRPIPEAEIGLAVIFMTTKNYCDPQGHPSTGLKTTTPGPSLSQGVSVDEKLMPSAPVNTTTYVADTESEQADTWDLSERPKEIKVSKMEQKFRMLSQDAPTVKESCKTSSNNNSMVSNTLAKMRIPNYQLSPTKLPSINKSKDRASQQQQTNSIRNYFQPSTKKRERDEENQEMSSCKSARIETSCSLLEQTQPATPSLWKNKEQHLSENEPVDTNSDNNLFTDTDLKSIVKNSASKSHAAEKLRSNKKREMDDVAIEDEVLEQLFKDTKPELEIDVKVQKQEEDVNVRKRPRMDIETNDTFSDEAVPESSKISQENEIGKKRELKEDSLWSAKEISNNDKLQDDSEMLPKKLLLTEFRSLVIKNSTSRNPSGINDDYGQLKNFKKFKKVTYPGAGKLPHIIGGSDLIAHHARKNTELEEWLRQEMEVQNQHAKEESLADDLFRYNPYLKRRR

[4] = target: B4; experiment: MST, 50 nM Atto488-labelled RPA70 N-terminal domain (1-120), peptide titrated [panel D]
[5] = target: T4, GRB2 (growth factor receptor-bound protein 2), wild-type, full-length, bacterially expressed and purified (UniProt P62993 1-217, Atto488 label where used as the labelled partner in MST); experiment: MST, 50 nM Atto488-labelled RPA70 N-terminal domain (1-120), GRB2 titrated [panel D]
T4 construct: domain: full-length; also called WTGRB2; non-ubiquitinated GRB2

[6] = target: T4, GRB2 (growth factor receptor-bound …); experiment: MST with the Y111 phosphorylated MRE11 peptide
[7] = target: T5, GRB2-SH2 domain, purified, Atto488-labelled (UniProt P62993 60-152, limits assumed, Atto488 label); experiment: MST with the Y111 phosphorylated MRE11 peptide
T5 construct: domain: SH2; Individual GRB2 domains generated as described before (Ahmed et al., 2010)

[8] = target: T5, GRB2-SH2 domain, purified, …; experiment: MST; 100 nM Atto488-labelled GRB2-SH2 domain, peptide titrated; unphosphorylated MRE11 peptide
[9] = target: T6, GRB2 K109R mutant, bacterially expressed and purified (UniProt P62993 1-217, Atto488 label in MST); experiment: MST, 100 nM Atto488-labelled K109R GRB2, peptide titrated
T6 construct: domain: full-length; also called K109RGRB2; K109R GRB2 mutant

[10] = target: T7, RPA70, endogenous, in HEK293T cell extracts (UniProt P27694 1-616); experiment: GST pull-down from HEK293T cell extracts, western blot [panel B]
T7 construct: also called RPA1

[11] = target: T8, Human MRE11 core (residues 1-411), bacterially expressed and purified (human, UniProt P49959 1-411); experiment: GST pull-down of bacterially expressed, purified human MRE11, western blot [panel C]
T8 construct: range 1-411; the only purified MRE11 described is the 1-411 core; also called human MRE11 (residue 1-411); bacterially purified MRE11
T8 sequence (looked up): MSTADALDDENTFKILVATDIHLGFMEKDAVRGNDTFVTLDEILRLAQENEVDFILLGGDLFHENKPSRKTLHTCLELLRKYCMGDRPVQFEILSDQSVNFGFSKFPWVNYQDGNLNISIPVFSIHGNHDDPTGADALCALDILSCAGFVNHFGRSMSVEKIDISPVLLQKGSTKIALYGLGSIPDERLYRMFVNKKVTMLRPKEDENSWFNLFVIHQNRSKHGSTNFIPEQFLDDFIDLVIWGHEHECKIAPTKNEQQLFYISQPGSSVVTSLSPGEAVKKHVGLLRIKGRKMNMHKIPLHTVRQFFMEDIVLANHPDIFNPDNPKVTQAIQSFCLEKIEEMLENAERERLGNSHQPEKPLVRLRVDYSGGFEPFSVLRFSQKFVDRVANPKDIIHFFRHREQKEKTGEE

[12] = target: T5, GRB2-SH2 domain, purified, …; experiment: MST, 100 nM Atto488-labelled GRB2-SH2 domain, peptide titrated

T1 sequence (O75417 whole entry): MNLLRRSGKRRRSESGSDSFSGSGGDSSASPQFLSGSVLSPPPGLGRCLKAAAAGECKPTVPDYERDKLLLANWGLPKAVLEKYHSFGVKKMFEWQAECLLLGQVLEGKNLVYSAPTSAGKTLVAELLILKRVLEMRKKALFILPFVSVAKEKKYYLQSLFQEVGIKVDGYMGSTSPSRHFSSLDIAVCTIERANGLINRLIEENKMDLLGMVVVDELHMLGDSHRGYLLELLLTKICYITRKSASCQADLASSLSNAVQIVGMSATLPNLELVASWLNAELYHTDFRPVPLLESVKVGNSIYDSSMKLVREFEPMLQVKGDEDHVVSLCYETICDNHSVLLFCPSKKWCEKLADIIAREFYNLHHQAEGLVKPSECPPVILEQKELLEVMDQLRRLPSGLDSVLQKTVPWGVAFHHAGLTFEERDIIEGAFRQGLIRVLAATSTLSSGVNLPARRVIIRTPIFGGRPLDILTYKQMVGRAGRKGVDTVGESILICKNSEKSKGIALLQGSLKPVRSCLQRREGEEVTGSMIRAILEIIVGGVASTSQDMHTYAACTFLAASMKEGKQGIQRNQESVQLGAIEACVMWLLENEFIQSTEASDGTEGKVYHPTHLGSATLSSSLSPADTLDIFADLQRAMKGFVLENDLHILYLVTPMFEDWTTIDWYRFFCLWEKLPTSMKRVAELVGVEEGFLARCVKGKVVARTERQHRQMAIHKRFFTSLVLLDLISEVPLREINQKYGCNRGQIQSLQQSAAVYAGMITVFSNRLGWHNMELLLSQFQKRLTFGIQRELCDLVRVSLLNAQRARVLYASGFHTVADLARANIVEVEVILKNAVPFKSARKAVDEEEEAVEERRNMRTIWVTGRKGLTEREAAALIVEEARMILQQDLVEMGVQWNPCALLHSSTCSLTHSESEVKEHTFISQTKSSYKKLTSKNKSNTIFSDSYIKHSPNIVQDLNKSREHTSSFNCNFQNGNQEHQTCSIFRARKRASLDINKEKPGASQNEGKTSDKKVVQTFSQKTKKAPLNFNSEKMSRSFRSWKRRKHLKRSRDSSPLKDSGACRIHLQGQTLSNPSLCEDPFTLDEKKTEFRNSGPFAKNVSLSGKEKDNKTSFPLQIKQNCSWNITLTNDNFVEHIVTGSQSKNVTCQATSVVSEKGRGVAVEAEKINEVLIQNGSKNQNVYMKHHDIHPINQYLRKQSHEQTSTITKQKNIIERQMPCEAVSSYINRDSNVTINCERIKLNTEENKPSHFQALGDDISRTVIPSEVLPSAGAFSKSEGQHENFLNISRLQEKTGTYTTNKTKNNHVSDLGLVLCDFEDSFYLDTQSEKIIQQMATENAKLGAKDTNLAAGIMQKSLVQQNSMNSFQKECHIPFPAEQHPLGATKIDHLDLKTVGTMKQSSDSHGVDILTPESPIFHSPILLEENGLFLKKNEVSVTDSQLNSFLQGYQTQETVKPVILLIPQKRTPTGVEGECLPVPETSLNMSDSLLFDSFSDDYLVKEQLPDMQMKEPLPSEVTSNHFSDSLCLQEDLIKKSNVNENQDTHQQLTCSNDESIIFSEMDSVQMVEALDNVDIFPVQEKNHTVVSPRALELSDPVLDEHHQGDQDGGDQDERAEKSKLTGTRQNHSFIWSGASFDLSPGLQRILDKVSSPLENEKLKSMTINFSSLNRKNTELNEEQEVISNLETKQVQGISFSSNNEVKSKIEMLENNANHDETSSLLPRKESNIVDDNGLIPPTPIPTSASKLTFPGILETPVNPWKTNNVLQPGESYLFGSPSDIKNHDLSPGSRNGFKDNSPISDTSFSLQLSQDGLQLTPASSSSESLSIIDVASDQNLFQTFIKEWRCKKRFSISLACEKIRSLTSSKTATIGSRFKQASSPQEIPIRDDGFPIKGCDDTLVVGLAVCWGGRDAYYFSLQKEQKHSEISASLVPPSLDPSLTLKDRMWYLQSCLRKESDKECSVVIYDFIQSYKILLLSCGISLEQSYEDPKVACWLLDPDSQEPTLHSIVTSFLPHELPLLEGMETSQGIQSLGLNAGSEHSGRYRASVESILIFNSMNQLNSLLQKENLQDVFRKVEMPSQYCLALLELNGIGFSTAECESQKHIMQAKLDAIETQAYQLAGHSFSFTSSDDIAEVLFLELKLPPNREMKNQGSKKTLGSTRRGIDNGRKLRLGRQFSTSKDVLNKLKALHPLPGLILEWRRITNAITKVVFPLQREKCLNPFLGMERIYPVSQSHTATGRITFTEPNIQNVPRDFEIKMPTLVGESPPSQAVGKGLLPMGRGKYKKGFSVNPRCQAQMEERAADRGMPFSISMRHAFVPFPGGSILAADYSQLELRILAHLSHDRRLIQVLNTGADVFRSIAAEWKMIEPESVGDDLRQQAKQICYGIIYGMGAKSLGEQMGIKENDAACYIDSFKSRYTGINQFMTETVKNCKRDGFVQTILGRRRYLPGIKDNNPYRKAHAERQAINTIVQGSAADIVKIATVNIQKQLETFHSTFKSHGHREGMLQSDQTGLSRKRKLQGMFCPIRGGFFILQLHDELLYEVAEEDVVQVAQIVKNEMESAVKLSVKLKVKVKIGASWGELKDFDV

B1: MRE11, endogenous, in extracts of human cell lines (HEK293T, HeLa, U2OS) (enzyme, UniProt P49959 2-708, looked up)
chain: STADALDDENTFKILVATDIHLGFMEKDAVRGNDTFVTLDEILRLAQENEVDFILLGGDLFHENKPSRKTLHTCLELLRKYCMGDRPVQFEILSDQSVNFGFSKFPWVNYQDGNLNISIPVFSIHGNHDDPTGADALCALDILSCAGFVNHFGRSMSVEKIDISPVLLQKGSTKIALYGLGSIPDERLYRMFVNKKVTMLRPKEDENSWFNLFVIHQNRSKHGSTNFIPEQFLDDFIDLVIWGHEHECKIAPTKNEQQLFYISQPGSSVVTSLSPGEAVKKHVGLLRIKGRKMNMHKIPLHTVRQFFMEDIVLANHPDIFNPDNPKVTQAIQSFCLEKIEEMLENAERERLGNSHQPEKPLVRLRVDYSGGFEPFSVLRFSQKFVDRVANPKDIIHFFRHREQKEKTGEEINFGKLITKPSEGTTLRVEDLVKQYFQTAEKNVQLSLLTERGMGEAVQEFVDKEEKDAIEELVKYQLEKTQRFLKERHIDALEDKIDEEVRRFRETRQKNTNEEDDEVREAMTRARALRSQSEESASAFSADDLMSIDLAEQMANDSDDSISAATNKGRGRGRGRRGGRGQNSASRGGSQRGRADTGLETSTRSRNSKTAVSASRNMSIIDAFKSTRQQPSRNVTTKNYSEVIEVDESDVEEDIFPTTSKTDQRWSSTSSSKIMSQSQVSKGVDFESSEDDDDDPFMNTSSLRRNRR
binding result [1]: binds | binding result [2]: binds

B2: Flag-MRE11 expressed in HEK293T cells (enzyme, UniProt P49959 1-708, looked up)
chain: MSTADALDDENTFKILVATDIHLGFMEKDAVRGNDTFVTLDEILRLAQENEVDFILLGGDLFHENKPSRKTLHTCLELLRKYCMGDRPVQFEILSDQSVNFGFSKFPWVNYQDGNLNISIPVFSIHGNHDDPTGADALCALDILSCAGFVNHFGRSMSVEKIDISPVLLQKGSTKIALYGLGSIPDERLYRMFVNKKVTMLRPKEDENSWFNLFVIHQNRSKHGSTNFIPEQFLDDFIDLVIWGHEHECKIAPTKNEQQLFYISQPGSSVVTSLSPGEAVKKHVGLLRIKGRKMNMHKIPLHTVRQFFMEDIVLANHPDIFNPDNPKVTQAIQSFCLEKIEEMLENAERERLGNSHQPEKPLVRLRVDYSGGFEPFSVLRFSQKFVDRVANPKDIIHFFRHREQKEKTGEEINFGKLITKPSEGTTLRVEDLVKQYFQTAEKNVQLSLLTERGMGEAVQEFVDKEEKDAIEELVKYQLEKTQRFLKERHIDALEDKIDEEVRRFRETRQKNTNEEDDEVREAMTRARALRSQSEESASAFSADDLMSIDLAEQMANDSDDSISAATNKGRGRGRGRRGGRGQNSASRGGSQRGRADTGLETSTRSRNSKTAVSASRNMSIIDAFKSTRQQPSRNVTTKNYSEVIEVDESDVEEDIFPTTSKTDQRWSSTSSSKIMSQSQVSKGVDFESSEDDDDDPFMNTSSLRRNRR
notes: not shown: Flag tag
binding result [3]: binds

B3: GRB2 OB1 peptide KYDFKATADDELSFKRG (peptide)
peptide: KYDFKATADDELSFKRG
notes: Synthetic, from GenScript; also called GRB2-derived OB1 peptide
Kd [4]: 2.1 µM

B4
Kd [5]: 1.6 µM

B5: Tyrosine-phosphorylated MRE11 peptide WVNpYQDGNLN (peptide)
peptide: WVN[pY]QDGNLN
modifications: not fully specified
notes: also called Y111 phosphorylated MRE11 peptide; tyrosine phosphorylated peptide
Kd [6]: 19.7 µM | Kd [7]: 46.8 µM

WVNYQDGNLN [MRE11 peptide WVNYQDGNLN]
Kd [8]: 33 µM | Kd [9]: > 200 µM

B6: GST-fused GRB2 C-terminal SH3 (cSH3) domain (other, UniProt P62993 156-217, looked up)
chain: QQPTYVQALFDFDPQEDGELGFRRGDFIHVMDNSDPNWWKGACHGQTGMFPRNYVTPVNRNV
notes: domain: C-terminal (cSH3); not shown: glutathione S-transferase (GST)
binding result [10]: no binding

B7: GST-fused GRB2 N-terminal SH3 (nSH3) domain (other, UniProt P62993 1-58, looked up)
chain: MEAIAKYDFKATADDELSFKRGDILKVLNEECDQNWYKAELNGKDGFIPKNYIEMKPH
notes: domain: N-terminal SH3 (nSH3); not shown: glutathione S-transferase (GST)
binding result [11]: no binding

B8: Phosphorylated H2AX peptide PSGGKKATQASQE(pY) (pY142 only) (peptide)
peptide: PSGGKKATQASQEX
modifications: phosphotyrosine at position 14 (Y142 of H2AX)
notes: Synthetic, from GenScript; also called pY142 H2AX
binding result [12]: no binding (tested: about 50 µM)

B9: Phosphorylated H2AX peptide PSGGKKATQA(pS)QEY (pS139 only) (peptide)
peptide: PSGGKKATQAXQEY
modifications: phosphoserine at position 11 (S139 of H2AX)
notes: Synthetic, from GenScript; also called pS139 H2AX
binding result [12]: no binding
